Test results as given in PMC8871475, “An Antibody-Aptamer-Hybrid Lateral Flow Assay for Detection of CXCL9 in Antibody-Mediated Rejection after Kidney Transplantation”.

Target: T1, CXCL9 (CXC-motif chemokine ligand 9) (UniProt Q07325 23-125)
T1 sequence: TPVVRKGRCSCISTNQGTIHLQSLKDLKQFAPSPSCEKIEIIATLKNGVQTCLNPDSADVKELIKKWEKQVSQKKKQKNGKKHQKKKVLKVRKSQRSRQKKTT
Test: lateral flow assay (antibody-aptamer sandwich); capture antibody A in test zone; LOD 10 pg/mL CXCL9 in binding buffer, 45 min; LFA binding buffer (PBS-based, urine-like): 138 mM NaCl, 5 mM KCl, 8.1 mM Na2HPO4, 1.5 mM KH2PO4, 1 mM MgCl2, 1 mM CaCl2, 170 mM urea, 7 mM ammonium acetate, 0.25% BSA, 0.1 mg/mL salmon sperm DNA, pH 6.5; temperature not stated; Kd conditions not given
Settings: protein: commercial; label: gold nanoparticle (5')

B1: AuNP-G123 (ssDNA)
DNA: CACGACGCAAGGGACCACAGGGAGGGAGGGTGGGCAAAGGGCCCTAAGTCCGTAACAAAAACACAGCACGACACCGCAGAGGCA
modifications: 5' C6-disulfide linker and hexaethylene glycol spacer
binding result: binds
